In patent US20260258115A1 (MAPP BIOPHARMACEUTICAL, published 2026):

How the values were obtained:
[1] = molecular target: T1, RSV postfusion F (postF), subtype A (respiratory syncytial virus subtype A, UniProt P03420 26-513); test: BLI
T1 construct: also called Postfusion subtype A; F deltaFP

[2] = molecular target: T2, RSV postfusion F (postF), subtype B (respiratory syncytial virus subtype B); test: BLI, IgG
T2 construct: also called Postfusion subtype B

[3] = molecular target: T1, RSV postfusion F (postF), subtype A; test: BLI, IgG
[4] = molecular target: RSV F on RSV subtype A virus (mKate-RSV A2) (respiratory syncytial virus A2, UniProt P03420 26-574); test: cell-based or functional assay
[5] = molecular target: T3, RSV prefusion F (preF), subtype B (respiratory syncytial virus subtype B); test: BLI, IgG
T3 construct: also called Prefusion subtype B

B1: ADI-22772 (antibody, V domains shown)
VH: EVQLVESGGGVVQPGRSLRLSCAASGFTFSSYAMHWVRQAPGKGLEWVAVISYDGSNKYYADSVKGRFTISRDNSKNTLYLQMNSLRAEDTAVYYCARAVEQQLFIWYYGMDVWGQGTTVTVSS
VL: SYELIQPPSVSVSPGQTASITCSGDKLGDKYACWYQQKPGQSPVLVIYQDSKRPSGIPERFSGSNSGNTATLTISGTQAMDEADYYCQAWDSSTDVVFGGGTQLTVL
notes: full-length IgG
For B1, the binding result [1] was “no binding” and the Kd [2] was 50.2 nM.

B2: ADI-24846 (antibody, V domains shown)
VH: EVQLLESGGGLVKPGGSLRLSCAASGFTFSSYSMNWVRQAPGKGLEWVSSISSSSSYIYYADSVKGRFTISRDNAKNSLYLQMNSLRAEDTAVYYCARDDGILWLDYWGQGTLVTVSS
VL: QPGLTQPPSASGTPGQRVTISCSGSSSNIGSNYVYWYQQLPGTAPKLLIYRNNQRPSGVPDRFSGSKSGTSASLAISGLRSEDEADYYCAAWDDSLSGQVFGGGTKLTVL
notes: full-length IgG
With B2 the binding result [1] was “no binding” and the Kd [2] was 29.1 nM.

B3: ADI-25587 (antibody, V domains shown)
VH: QVQLVESGGGVVQPGRSLRLSCAASGFTFSSYGMHWVRQAPGKGLEWVAVIWYDGSNKYYADSVKGRFTISRDNSKNTLYLQMNSLRAEDTAVYYCARDSTYSEAFDIWGQGTMVTVSS
VL: QSVLIQPASVSGSPGQSITISCTGTSSDVGGYNYVSWYQQHPGKAPKLMIYDVSNRPSGVSNRFSGSKSGNTASLTISGLQAEDEADYYCSSYTSSSTWVFGGGTKVTVL
notes: full-length IgG
For B3, the Kd [2] was 7.93 nM and the Kd [3] was 9.23 nM.

B4: ADI-24803 (antibody, V domains shown)
VH: EVQLLESGGGLVLPGGSLRLSCAASGFTFSSYAMSWVRQAPGKGLEWVSAISGSGIYTYYADSVKGRFTISRDNSKNTLYLQMSSLRAEDTAVYYCAKGSLGMAYSAFDIWGLGTTVTVSS
VL: DIQLTQSPGTLSLSSGERATLSCRASQSVSSNYLAWYQQKPGQPPRLLIYGASSRATGIPDRFSGSGSGTDFTLTISRLEPEDFAVYYCQQYGSSPLTFGGGTKVDIK
notes: full-length IgG
In the case of B4, the Kd [2] is reported as 0.442 nM and the Kd [3] is reported as 1.2 nM.

B5: ADI-25573 (antibody, V domains shown)
VH: EVQLVESGAEVKKPGASVKVSCKASGYTFTSYYMHWVRQAPGQGLEWMGIINPSGGSTSYAQKFQGRVTMTRDTSTSTVYMELSSLRSEDTAVYYCARGPYDSSGYCDYWGQGTLVTVSS
VL: SYELMQPPSVSVAPGKTARITCGGNNIGSKSVHWYQQKPGQAPVLVVYDDSDRPSGTPERFSGSNSGNTATLTISRVEAGDEADYYCQVWDSSSDQVFGGGTKVTVL
notes: full-length IgG
B5 was tested, and the binding result [1] was “no binding” and the Kd [2] was 48.6 nM.

B6: ADI-25575 (antibody, V domains shown)
VH: EVQLVESGAEVKKPGASVKVSCKASGYTFTSYYMHWVRQAPGQGLEWMGIINPSGGSTSYAQKFQGRVTMTRDTSTSTVYMELSSLRSEDTAVYYCARGPYDSSGYCDYWGQGTLVTVSS
VL: SYELTQPPSVSVAPGKTARITCGGNNIGSKSVHWYQQKPGQAPVLVVYDDSDRPSGIPERFSGSNSGNTATLTISRVEAGDEADYYCQVWDSSSDQVFGGGTKLTVL
notes: full-length IgG
In the case of B6, the Kd [2] is reported as 39.6 nM and the “Neut IC50 subtype A” value [4] is reported as 5.64 µg/mL.

B7: ADI-19479 (antibody, V domains shown)
VH: QVQLVQSGAEVKKPGSSVKVSCKASGGTFSSNAINWVRQAPGQGLEWMGGIIPIFGTANYAQKFQGRVTITTDESTSTAYMELSSLRSEDTAVYYCATTFYYGSGADYWGQGTLVTVSS
VL: DIQMTQSPLSLPVTLGQPASISCRSSQSLVYSDGNMYLSWFQQRPGQSPRRLIYKVSNRDSGVPDRFSGSGSGTDFTLKISRVEAEDVGVYYCMQGTHWWTFGQGTKVEIK
notes: full-length IgG
For B7, the Kd [2] was 2.69 nM and the Kd [3] was 3.69 nM.

B8: ADI-19511 (antibody, V domains shown)
VH: QITLKESGPTLVKPTQTLTLTCTFSGFSLSTSGVGVGWIRQPPGKALEWLALIYWDDDKRYSPSLKSRLTITKDTSKNQVVLTMTNMDPVDTATYYCAHSVYYDFWSGYYVPNYFDYWGQGTLVTVSS
VL: DIQMTQSPSSLSASVGDRVTITCRASQGIRNDLGWYQQKPGKAPKRLIYAASSLQSGVPSRFSGSGSGTEFTLTISSLQPEDFATYYCLQHNSYPLTFGGGTKVEIK
notes: full-length IgG
In the case of B8, the binding result [1] is reported as “no binding” and the Kd [2] is reported as 15.3 nM.

B9: ADI-24834 (antibody, V domains shown)
VH: QVQLVQSGGGLVQPGGSLRLSCAASGFTFSSYAMSWVRQAPGKGLEWVSTISGSGGSTYYADSVKGRFTISRDNSKNTLYLQMNSLRAEDTAVYYCATWKRWGSGYYYSYMDVWGKGTTVTVSS
VL: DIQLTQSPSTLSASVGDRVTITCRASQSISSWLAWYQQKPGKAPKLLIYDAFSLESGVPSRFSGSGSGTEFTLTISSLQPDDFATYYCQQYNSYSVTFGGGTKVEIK
notes: full-length IgG
Work on B9 yielded a Kd [2] of 0.26 nM, a Kd [3] of 0.211 nM and a Kd [5] of 0.732 nM.

B10: ADI-14379 (antibody, V domains shown)
VH: EVQLLESGGGVVQPGRSLRLSCAASGFTFSSYAMHWVRQAPGKGLEWVAVIGNDGTNKYHADSVKGRFTISRDNSKNTLYLQMNSLRAEDTAVYYCARRRVGIMYSGSYWGGMDVWGQGTTVTVSS
VL: SYELTQPPSVSVSPGQTASITCSGDKLGGKYVSWYQQKPGQSPVLVMYQDTRRPSGIPERLSGSNSGSTATLTISATQAMDEADYYCQAWDITTVHVVFGGGTKLTVL
notes: full-length IgG; also called Ab 47
In the case of B10, the Kd [2] is reported as 2.35 nM and the Kd [3] is reported as 3.29 nM.

B11: ADI-19476 (antibody, V domains shown)
VH: QVQLVESGPTLVKPTQTLTLTCTFSGFSLSTSRVGVGWIRQPPGKALEWLALIYWDDDKRYSPSLKSRLTITKDTSKNQVVLTMTNMDPVDTARYYCAHRSTYDILGGYYYFDYWGQGTLVTVSS
VL: QPVLTQPRSVSGSPGQSVTISCTGTSSDVGGYNYVSWFQQHPGKAPKLMIYDVSKRPSGVPNRFSGSKSGNTASLTISGLQAEDEADYFCCSYAGTYEVFGGGTKLTVL
notes: full-length IgG
Binder B11 has a Kd [2] of 0.838 nM and a Kd [3] of 0.801 nM.

B12: ADI-19486 (antibody, V domains shown)
VH: QVQLQESGPGLVKPSETLSLTCSVSGGSLTSYYWSWIRQPPGKGLEWIGYIYYSGSTNYNPSLKSRLTISVDTSKNQFSLKLSSVTAADTAVYYCARVGGRGVINVFDYWGQGTLVTVSS
VL: QPVLTQPASVSGSPGQSITISCTGTSSDVGGYNYVSWYQQHPGKAPKLMIYEVSNRPSGVSNRFSGSKSGNTASLTISGLQAEDEADYYCDSYRSNSASVVFGGGTKLTVL
notes: full-length IgG
B12 showed a Kd [2] of 7.55 nM and a Kd [3] of 0.525 nM.

B13: ADI-25467 (antibody, V domains shown)
VH: GVQLVESGPGLVKPSETLSLTCTVSGGSISSYYWSWIRQPPGKGLEWIGYIYYSGSTNYNPSLKSRVTISVDTSKNQFSLKLSSVTAADTAVYYCARGYYYDSSGYYPNDAFDIWGQGTMVTVSS
VL: not shown
notes: full-length IgG
With B13 the Kd [2] was 26.2 nM and the Kd [3] was 25.3 nM.

B14: ADI-14369 (antibody, V domains shown)
VH: QVQLVQSGAEVKKPGSSVKVSCKASGGTFSSNAISWVRQAPGQGLEWMGGIIPIFATANYAQNFQDRVTITADESTGTAYMELSSLRYEDTAVYYCAKSAIHSGYHGPARSGFYQNGMDVWGQGTTVTVSS
VL: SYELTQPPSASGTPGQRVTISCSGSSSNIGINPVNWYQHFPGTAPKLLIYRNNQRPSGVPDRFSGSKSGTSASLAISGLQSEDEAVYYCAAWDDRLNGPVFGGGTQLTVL
notes: full-length IgG; also called Ab 37
B14 was tested, and the Kd [2] was 0.9 nM and the Kd [5] was 3.38 nM.

B15: ADI-24825 (antibody, V domains shown)
VH: QVQLVQSGAEVKKPGASVKVSCKASGYTFTSYDINWVRQATGQGLEWMGWMNPNSGNTGYAQKFQGRVTMTRNTSISTAYMELSSLRSEDTAVYYCSSVGGYYYYGMDVWGQGTTVTVSS
VL: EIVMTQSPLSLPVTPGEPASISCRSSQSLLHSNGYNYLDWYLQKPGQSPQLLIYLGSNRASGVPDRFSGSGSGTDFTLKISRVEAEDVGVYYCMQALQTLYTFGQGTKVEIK
notes: full-length IgG
B15 gave a Kd [2] of 26 nM and a Kd [3] of 30.1 nM.

B16: ADI-14372 (antibody, V domains shown)
VH: QVQLLESGGGLVQPGGSLRLSCAASGFTFSNYAMGWVRQAPGQGLEWVSRISATGGSTHYADSVRGRFTISRDNSKNTLYLQMNSLKAEDTAVYYCAKDRGYSRNLTPDYWGQGTLVTVSS
VL: ETTLTQSPSSLSASVGDRVTITCRASQGITNDLGWYQKKPGKAPKLLIYVASSLQSGVPSRFSGSGSGTDFTLTISSLQPEDFATYYCLQDYNYPITFGQGTKVDIK
notes: full-length IgG; also called Ab 40
In the case of B16, the Kd [2] is reported as 4.43 nM and the Kd [3] is reported as 0.659 nM.

B17: ADI-24793 (antibody, V domains shown)
VH: QVQLVQSGAEVKKPGESLKISCKGSGYSFTSYWIGWVRQMPGKGLEWMGIIYPGDSDTRYSPSFQGQVTISADKSISTAYLQWSSLKASDTAMFYCVMGSYSYYFDYWGQGTLVTVSS
VL: NFMLTQPHSVSESPGKTVTISCTRSSGSIASNYVQWYQQRPGSAPTTVIYEDNLRPSGVPDRFSGSIDSSSNSASLTISGLKTEDEADYYCQSYDSSNQVFGGGTKLTVL
notes: full-length IgG
B17 was tested, and the binding result [1] was “no binding” and the Kd [2] was 26.8 nM.
